Laboratory results: patent US20110183917A1 (UNIVERSITY OF MARYLAND BALTIMORE, published 2011)

T1: synMDMX (synthetic MDMX comprising amino acids 24-108 of the full length MDMX protein) (human, UniProt O15151 24-108)
T1 construct: range 24-108; A biotinylated form was the bait in the phage selections; also called MDM4; biotin-synMDMX
T1 sequence (looked up): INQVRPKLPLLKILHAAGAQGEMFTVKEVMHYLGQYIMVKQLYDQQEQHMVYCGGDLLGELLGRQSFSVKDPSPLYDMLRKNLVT


Tests used:
[1] = molecular target: T2, synMDM2 (synthetic MDM2 comprising amino acids 25-109 of the full length MDM2 protein) (human, UniProt Q00987 25-109); experiment: phage display selection, peptide on M13 pIII, biotin-synMDM2 as bait
T2 construct: range 25-109; A biotinylated form (biotin-synMDM2) was the bait in the phage selections; also called biotin-synMDM2
T2 sequence (Q00987 25-109 limits assumed): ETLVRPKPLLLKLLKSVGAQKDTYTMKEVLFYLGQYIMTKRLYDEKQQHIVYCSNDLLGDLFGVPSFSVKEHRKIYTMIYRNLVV

[2] = molecular target: T1, synMDMX (synthetic MDMX comprising …); experiment: phage display selection, peptide on M13 pIII, biotin-synMDMX as bait
[3] = molecular target: T1, synMDMX (synthetic MDMX comprising …); experiment: SPR competition, immobilized 15-29p53

| Binder | binding result [1] | binding result [2] | fold lower affinity than 15-29p53 [3] [fold] |
| --- | --- | --- | --- |
| DDWFQRVWSPLM (Reported only as a phage clone: the 12-mer was fused through a GlyGlyGlySer spacer to the N-terminus of M13 pIII) [L-PMI-2] | binds | binds |  |
| CYSFDCLWKCLAMGFSSGKCINSKCKC (designed binder, also called L-Stoppin-1) [stoppin-1] |  |  | ~4 |
